Bridge positions count the residues as written; N and C are the ends. Square brackets hold non-standard residues; d marks the D form. dPhe(3-Cl) = N[C@H](Cc1cccc(Cl)c1)C(=O)O; dPhe(4-Cl) = N[C@H](Cc1ccc(Cl)cc1)C(=O)O; dPhe(4-Me) = Cc1ccc(C[C@@H](N)C(=O)O)cc1; dPhe(2-Cl) = N[C@H](Cc1ccccc1Cl)C(=O)O; dPhe(4-F) = N[C@H](Cc1ccc(F)cc1)C(=O)O; dPhe(2-F) = N[C@H](Cc1ccccc1F)C(=O)O; Nle = CCCC[C@H](N)C(=O)O; Orn = NCCC[C@H](N)C(=O)O; Dab = NCC[C@H](N)C(=O)O; Dap = NC[C@H](N)C(=O)O
Legend:
[1] = biological target: recombinant human melanocortin-4 receptor hMCR-4 (human) (UniProt P32245); experiment: competition with [I125]-NDP-α-MSH; HEK-293 hMCR-4 membrane homogenates
Sequence of recombinant human melanocortin-4 receptor hMCR-4 (human) (P32245 whole entry): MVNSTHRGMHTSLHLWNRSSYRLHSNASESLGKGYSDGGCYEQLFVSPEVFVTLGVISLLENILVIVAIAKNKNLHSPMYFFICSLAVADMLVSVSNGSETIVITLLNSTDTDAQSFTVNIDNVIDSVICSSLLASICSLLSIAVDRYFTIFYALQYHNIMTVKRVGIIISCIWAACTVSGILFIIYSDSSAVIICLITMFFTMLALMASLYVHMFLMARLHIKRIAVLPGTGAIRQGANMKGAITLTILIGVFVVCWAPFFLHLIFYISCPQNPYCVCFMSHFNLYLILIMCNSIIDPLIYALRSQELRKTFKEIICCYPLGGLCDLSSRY

[2] = biological target: recombinant human melanocortin-1 receptor hMCR-1a (human) (UniProt Q01726); experiment: competition with [I125]-NDP-α-MSH; HEK-293 hMCR-1a membrane homogenates
Sequence of recombinant human melanocortin-1 receptor hMCR-1a (human) (Q01726 whole entry): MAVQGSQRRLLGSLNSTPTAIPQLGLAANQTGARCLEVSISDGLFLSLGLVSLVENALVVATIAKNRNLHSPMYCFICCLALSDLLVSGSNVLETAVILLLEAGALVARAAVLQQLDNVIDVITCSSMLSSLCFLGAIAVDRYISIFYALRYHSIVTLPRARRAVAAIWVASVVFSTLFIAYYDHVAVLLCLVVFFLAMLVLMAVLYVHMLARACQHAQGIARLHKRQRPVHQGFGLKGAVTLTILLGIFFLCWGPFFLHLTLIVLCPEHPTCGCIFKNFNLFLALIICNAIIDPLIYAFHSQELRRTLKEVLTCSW

Row | Substance | Ki [1] [nM] | Ki [2] [nM]
1 | Ac-Nle-cyclo(Glu-His-D-Phe-Arg-Dab)-Trp-OH (peptide) | 10000 | 2
2 | Ac-Nle-cyclo(Glu-His-D-Phe-Arg-Dap)-Trp-OH (peptide) | 4700 | 1
3 | Ac-Nle-cyclo(Glu-Orn-D-Phe(3,4-F)-Arg-Dab)-NH2 (peptide) | 10000 | 40
4 | Ac-Nle-cyclo(Glu-Orn-D-Phe(4-OMe)-Arg-Dab)-NH2 (peptide) | 10000 | 2
5 | Ac-Nle-cyclo(Glu-Pro-D-Phe-Arg-Dab)-NH2 (peptide) | 10000 | 2250
6 | Ac-[Nle]EH[dF]A[Dab]-NH2 (lactam 2-6) | 10000 | 645
7 | Ac-[Nle]EH[dF]A[Dab]-NH2 (lactam 2-6; SEQ ID NO: 48) | 10000 | 645
8 | Ac-[Nle]EH[dF]A[Dab]W-NH2 (lactam 2-6) | 10000 | 
9 | Ac-[Nle]EH[dF]G[Dab]W-NH2 (lactam 2-6) | 10000 | 9
10 | Ac-[Nle]EH[dF]R[Dab]-NH2 (lactam 2-6) | 10000 | 7
11 | Ac-[Nle]EH[dF]R[Dab]-NH2 (lactam 2-6; SEQ ID NO: 47) | 10000 | 7
12 | Ac-[Nle]EH[dF]R[Dab]A-NH2 (lactam 2-6) | 7480 | 2
13 | Ac-[Nle]EH[dF]R[Dab]K-NH2 (lactam 2-6) | 7380 | 2
14 | Ac-[Nle]EH[dF][Dab]-NH2 (lactam 2-5) | 10000 | 10000
15 | Ac-[Nle]E[Orn][dF]R[Dab]-NH2 (lactam 2-6) | 3620 | 4
16 | Ac-[Nle]E[Orn][dPhe(2-Cl)]R[Dab]-NH2 (lactam 2-6) | 10000 | 30
17 | Ac-[Nle]E[Orn][dPhe(2-F)]R[Dab]-NH2 (lactam 2-6) | 10000 | 18
18 | Ac-[Nle]E[Orn][dPhe(3-Cl)]R[Dab]-NH2 (lactam 2-6) | 10000 | 35
19 | Ac-[Nle]E[Orn][dPhe(4-F)]R[Dab]-NH2 (lactam 2-6) | 10000 | 20
20 | Ac-[Nle]E[Orn][dPhe(4-Me)]R[Dab]-NH2 (lactam 2-6) | 10000 | 3

The next substances have a lower Ki [1] than those just listed; values first:

Row | Ki [1] [nM] | Ki [2] [nM] | Substance
21 | 535 |  | Ac-D-Phe-cyclo(Glu-His-D-Phe-Arg-Dab)-Trp-NH2 (peptide)
22 | 380 | 0.015 | Ac-Nle-cyclo(Dab-His-D-Phe-Arg-Dab)-Trp-NH2 with bridge C(═O)-(CH2)2-C(═O) (peptide)
23 | 325 | 0.025 | Ac-Nle-cyclo(Dab-His-D-Phe-Arg-Dap)-Trp-NH2 with bridge C(═O)-(CH2)2-C(═O) (peptide)
24 | 860 | 0.065 | Ac-Nle-cyclo(Dap-His-D-Phe-Arg-Dab)-Trp-NH2 with bridge C(═O)-(CH2)2-C(═O) (peptide)
25 | 680 | 0.03 | Ac-Nle-cyclo(Dap-His-D-Phe-Arg-Dap)-Trp-NH2 with bridge C(═O)-(CH2)2-C(═O) (peptide)
26 | 455 |  | Ac-Nle-cyclo(Glu-Ala-D-Phe-Arg-Dab)-Trp-NH2 (SEQ ID NO: 52) (peptide)
27 | 455 |  | Ac-Nle-cyclo(Glu-Ala-D-Phe-Arg-Dab)-Trp-NH2 (peptide)
28 | 20 |  | Ac-Nle-cyclo(Glu-Arg-D-Phe-Arg-Dab)-Trp-NH2 (SEQ ID NO: 53) (peptide)
29 | 20 |  | Ac-Nle-cyclo(Glu-Arg-D-Phe-Arg-Dab)-Trp-NH2 (peptide)
30 | 98 | 0.45 | Ac-Nle-cyclo(Glu-Cit-D-Phe-Arg-Dab)-Trp-NH2 (SEQ ID NO: 54) (peptide)
31 | 98 | 0.45 | Ac-Nle-cyclo(Glu-Cit-D-Phe-Arg-Dab)-Trp-NH2 (peptide)
32 | 98 | 0.05 | Ac-Nle-cyclo(Glu-Dab-D-Phe-Arg-Dab)-Trp-NH2 (SEQ ID NO: 57) (peptide)
33 | 98 | 0.05 | Ac-Nle-cyclo(Glu-Dab-D-Phe-Arg-Dab)-Trp-NH2 (peptide)
34 | 2 | 0.1 | Ac-Nle-cyclo(Glu-His-D-Phe-Arg-Dab)-D-Nal 1-NH2 (peptide)
35 | 33 | 0.55 | Ac-Nle-cyclo(Glu-His-D-Phe-Arg-Dab)-D-Trp-NH2 (peptide)
36 | 0.75 | 0.005 | Ac-Nle-cyclo(Glu-His-D-Phe-Arg-Dab)-Nal 1-NH2 (peptide)
37 | 0.095 | 0.02 | Ac-Nle-cyclo(Glu-His-D-Phe-Arg-Dab)-Nal 2-NH2 (SEQ ID NO: 14) (peptide)
38 | 3 | 0.01 | Ac-Nle-cyclo(Glu-His-D-Phe-Arg-Dab)-Nal 2-NH2 (peptide)
39 | 110 |  | Ac-Nle-cyclo(Glu-His-D-Phe-Arg-Dab)-Trp-NH2 (peptide)
40 | 358 |  | Ac-Nle-cyclo(Glu-His-D-Phe-Arg-Dap)-Trp-NH2 (peptide)
41 | 295 |  | Ac-Nle-cyclo(Glu-His-D-Phe-Arg-Orn)-Trp-NH2 (peptide)
42 | 95 |  | Ac-Nle-cyclo(Glu-Lys-D-Phe-Arg-Dab)-Trp-NH2 (SEQ ID NO: 56) (peptide)
43 | 95 |  | Ac-Nle-cyclo(Glu-Lys-D-Phe-Arg-Dab)-Trp-NH2 (peptide)
44 | 45 | 0.015 | Ac-Nle-cyclo(Glu-Orn-D-Phe-Arg-Dab)-Trp-NH2 (SEQ ID NO: 58) (peptide)
45 | 45 | 0.015 | Ac-Nle-cyclo(Glu-Orn-D-Phe-Arg-Dab)-Trp-NH2 (peptide)
46 | 1320 | 2 | Ac-[Nle]DH[dF]R[Dap]W-NH2 (lactam 2-6)
47 | 185 | 3 | Ac-[Nle]EP[dF]R[Dab]W-NH2 (lactam 2-6)
48 | 1240 | 2 | Ac-[Nle]E[Orn][dPhe(4-Cl)]R[Dab]-NH2 (lactam 2-6)
